The labels stand for the following.
B1: RD22 (dsDNA)
DNA 1: CTTCTAACCACTACGTGCCTTCTGCTCCTTCTGC
DNA 2: GCAGAAGGAGCAGAAGGCACGTAGTGGTTAGAAG
B2: RD29a DRE (dsDNA)
DNA 1: TAAAAGATATACTACCGACATGAGTTCCAAAAAGC
DNA 2: GCTTTTTGGAACTCATGTCGGTAGTATATCTTTTA
B3: MBS-1 (dsDNA)
DNA 1: CGAGACACCCTAACTGACACACATTCT
DNA 2: AGAATGTGTGTCAGTTAGGGTGTCTCG

The target of this data set is SbMYB44 (Salicornia brachiata, UniProt X2J380 1-269). The data set is described as follows: EMSA; 15 mM HEPES, 35 mM KCl, 4 mM EDTA (pH 8.0), 1 mM DTT, 1 mM MgCl2, 6% glycerol, room temperature 20 min; 80 ng probe, 40 ug protein in Methods (ng in Results/Fig. 5); SYBR Green stain. The following applies: protein: recombinant; tags: 6xHis (pET28a, EcoRI/XhoI); blunt. On the technique in general: Mobility shift assays separate free from complexed probe on a gel.
Chain of SbMYB44 (X2J380 entry or part of it): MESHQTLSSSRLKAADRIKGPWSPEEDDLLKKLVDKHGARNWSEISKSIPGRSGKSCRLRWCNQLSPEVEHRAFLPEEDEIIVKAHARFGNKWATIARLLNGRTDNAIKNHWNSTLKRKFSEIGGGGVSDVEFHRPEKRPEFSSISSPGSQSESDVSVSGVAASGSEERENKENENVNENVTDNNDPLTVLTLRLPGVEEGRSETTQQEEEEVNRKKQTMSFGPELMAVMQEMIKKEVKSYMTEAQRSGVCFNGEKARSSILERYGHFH
Consider B1, for which the binding result is reported as “binds”.
To B2 belongs “no binding”.
To B3 belongs “binds”.

For the origin of these results see PMC4497479, “Molecular characterization of an MYB transcription factor from a succulent halophyte involved in stress tolerance”.
